According to PMC4692061 (Biochemical Journal, 2015):

Molecular target: the molecule itself
Experiment: FRET or BRET

B1: full-length EphA3 (erythropoietin-producing hepatocellular carcinoma A3 receptor tyrosine kinase) tagged at the C-terminus with mTurq or eYFP (receptor, UniProt P29320 21-983, looked up)
chain: ELIPQPSNEVNLLDSKTIQGELGWISYPSHGWEEISGVDEHYTPIRTYQVCNVMDHSQNNWLRTNWVPRNSAQKIYVELKFTLRDCNSIPLVLGTCKETFNLYYMESDDDHGVKFREHQFTKIDTIAADESFTQMDLGDRILKLNTEIREVGPVNKKGFYLAFQDVGACVALVSVRVYFKKCPFTVKNLAMFPDTVPMDSQSLVEVRGSCVNNSKEEDPPRMYCSTEGEWLVPIGKCSCNAGYEERGFMCQACRPGFYKALDGNMKCAKCPPHSSTQEDGSMNCRCENNYFRADKDPPSMACTRPPSSPRNVISNINETSVILDWSWPLDTGGRKDVTFNIICKKCGWNIKQCEPCSPNVRFLPRQFGLTNTTVTVTDLLAHTNYTFEIDAVNGVSELSSPPRQFAAVSITTNQAAPSPVLTIKKDRTSRNSISLSWQEPEHPNGIILDYEVKYYEKQEQETSYTILRARGTNVTISSLKPDTIYVFQIRARTAAGYGTNSRKFEFETSPDSFSISGESSQVVMIAISAAVAIILLTVVIYVLIGRFCGYKSKHGADEKRLHFGNGHLKLPGLRTYVDPHTYEDPTQAVHEFAKELDATNISIDKVVGAGEFGEVCSGRLKLPSKKEISVAIKTLKVGYTEKQRRDFLGEASIMGQFDHPNIIRLEGVVTKSKPVMIVTEYMENGSLDSFLRKHDAQFTVIQLVGMLRGIASGMKYLSDMGYVHRDLAARNILINSNLVCKVSDFGLSRVLEDDPEAAYTTRGGKIPIRWTSPEAIAYRKFTSASDVWSYGIVLWEVMSYGERPYWEMSNQDVIKAVDEGYRLPPPMDCPAALYQLMLDCWQKDRNNRPKFEQIVSILDKLIRNPGSLKIITSAAARPSNLLLDQSNVDITTFRTTGDWLNGVWTAHCKEIFTGVEYSSCDTIAKISTDDMKKVGVTVVGPQKKIISSIKALETQSKNGPVPV
stoichiometry N: 2
